Results taken from patent publication EP4687981A2 (dated 2026).

Target: T1, human CDH11 on primary human fibroblast-like synoviocytes (FLS) (human, UniProt P55287 54-796)
T1 construct: whole, on cells; also called human FLS; human synoviocytes
T1 sequence (looked up): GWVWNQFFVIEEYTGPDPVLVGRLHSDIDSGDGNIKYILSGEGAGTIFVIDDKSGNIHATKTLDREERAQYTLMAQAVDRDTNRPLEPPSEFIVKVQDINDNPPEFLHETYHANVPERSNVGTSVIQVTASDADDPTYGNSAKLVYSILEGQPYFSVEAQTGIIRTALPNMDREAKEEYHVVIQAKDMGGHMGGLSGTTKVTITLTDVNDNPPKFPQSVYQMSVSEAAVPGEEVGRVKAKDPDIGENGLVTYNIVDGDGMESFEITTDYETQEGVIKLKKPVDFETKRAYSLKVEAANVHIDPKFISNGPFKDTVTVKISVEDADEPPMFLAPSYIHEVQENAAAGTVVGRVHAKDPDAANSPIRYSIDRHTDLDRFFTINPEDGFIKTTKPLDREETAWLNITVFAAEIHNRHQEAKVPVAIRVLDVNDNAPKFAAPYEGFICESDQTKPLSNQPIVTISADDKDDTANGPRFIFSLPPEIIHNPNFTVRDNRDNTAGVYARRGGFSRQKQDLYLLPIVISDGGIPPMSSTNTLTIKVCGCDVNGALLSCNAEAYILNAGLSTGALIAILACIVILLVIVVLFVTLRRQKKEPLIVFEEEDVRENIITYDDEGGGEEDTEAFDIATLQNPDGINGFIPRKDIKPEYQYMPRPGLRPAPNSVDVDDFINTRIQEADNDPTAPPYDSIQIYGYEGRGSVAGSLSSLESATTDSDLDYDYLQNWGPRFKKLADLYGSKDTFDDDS
Assay: flow cytometry, hybridoma supernatant on primary human FLS

B1: anti-CDH11 antibody 10E1 (antibody, V domains shown)
VH: QVQLQQSGPGLVKPSQTLSLTCAISGDSVSSNSAAWNWIRQSPSRGLEWLGRTYYRSKWYNDYAVSVKSRITINPDTSKNQFSLQLNSMTPEDTAVYYCARATMVRGAFDYWGQGTLVTVSS
VL: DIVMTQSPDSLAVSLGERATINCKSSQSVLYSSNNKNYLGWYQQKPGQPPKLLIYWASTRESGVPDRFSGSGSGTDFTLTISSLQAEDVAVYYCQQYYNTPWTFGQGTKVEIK
notes: Monoclonal from a VelocImmune mouse hybridoma; It was detected with anti-mouse IgG Fc, so the constant regions are mouse; the isotype cannot be read in this copy; also called clone 10E1
B1: binds.
